This assay addresses Alkaline Phosphatase, Germ Cell (ALPG) expressed on K562-ALPG and K562-ALPG/MSLN target cells (UniProt P10696).

Chain of Alkaline Phosphatase, Germ Cell (ALPG) expressed on K562-ALPG and K562-ALPG/MSLN target cells (P10696 20-503): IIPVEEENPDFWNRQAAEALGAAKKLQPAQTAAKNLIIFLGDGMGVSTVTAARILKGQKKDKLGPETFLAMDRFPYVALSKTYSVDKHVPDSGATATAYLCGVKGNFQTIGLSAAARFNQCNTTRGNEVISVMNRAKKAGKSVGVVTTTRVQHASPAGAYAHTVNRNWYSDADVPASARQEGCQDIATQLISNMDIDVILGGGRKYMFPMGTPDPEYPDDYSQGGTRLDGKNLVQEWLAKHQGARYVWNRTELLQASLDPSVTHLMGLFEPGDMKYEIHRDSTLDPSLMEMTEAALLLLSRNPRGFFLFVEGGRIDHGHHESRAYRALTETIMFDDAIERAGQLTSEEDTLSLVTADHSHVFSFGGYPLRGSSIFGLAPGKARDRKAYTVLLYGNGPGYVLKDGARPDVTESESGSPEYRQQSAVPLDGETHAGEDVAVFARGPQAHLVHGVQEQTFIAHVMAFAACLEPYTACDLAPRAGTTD

B1: Myc-tag ALPG/P priming receptor: anti-ALPG/P scFv-CD8α hinge-Notch1 TMD-Notch1 STS-HNF1aDBD-p65 activation domain (protein, not shown: small tags and cut ends)
chain: DIQMTQSPSSLSASVGDRVTITCRASENIYSYVAWYQQKPGKAPKLLIYNAKSLASGVPSRFSGSGSGTDFTLTISSLQPEDFATYYCQHHYVSPWTFGGGTKLEIKGGGGSGGGGSGGGGSQVQLQESGPGLVKPSETLSLTCTVSGFSLTSYGVSWIRQPAGKGLEWIGVIWEDGSTNYHSALISRVTMSVDTSKNQFSLKLSSVTAADTAVYYCARPHYGSSYVGAMEYWGAGTTVTVSSATTTPAPRPPTPAPTIASQPLSLRPEACFMYVAAAAFVLLFFVGCGVLLSRKRRRQHGQLWFPEGFKVSEASKKKRREPLGEDSVGLKPLKNAMVSKLSQLQTELLAALLESGLSKEALLQALGEPGPYLLAGEGPLDKGESCGGGRGELAELPNGLGETRGSEDETDDDGEDFTPPILKELENLSPEEAAHQKAVVETLLQEDPWRVAKMVKSYLQQHNIPQREVVDTTGLNQSHLSQHLNKGTPMKTQKRAALYTWYVRKQREVAQQFTHAGQGGLIEEPTGDELPTKKGRRNRFKWGPASQQILFQAYERQKNPSKEERETLVEECNRAECIQRGVSPSQAQGLGSNLVTEVRVYNWFANRRKEEAFRHKLAMTCRDEFPTMVFPSGQISQASALAPAPPQVLPQAPAPAPAPAMVSALAQAPAPVPVLAPGPPQAVAPPAPKPTQAGEGTLSEALLQLQFDDEDLGALLGNSTDPAVFTDLASVDNSEFQQLLNQGIPVAPHTTEPMLMEYPEAITRLVTGAQRPPDPAPAPLGAPGLPNGLLSGDEDFSSIADMDFSALLSQISS
Consider B1, for which the % of LG1 T cells CAR+ PrimeR+ (upper right quadrant) after 72 h with K562 ALPG high, 1:1 is 0.043%; the % of LG1 T cells CAR+ PrimeR+ (upper right quadrant) after 72 h with K562 ALPG low, 1:1 is 0.25%; the % of LG1 T cells CAR+ PrimeR+ (upper right quadrant), T cells alone, no ALPG cells (baseline) came to 1.11%; the % of LG1 T cells CAR+ PrimeR- (upper left quadrant) after 72 h with K562 ALPG high, 1:1 is 5.29%. This molecule gave a % of LG1 T cells CAR+ PrimeR- (upper left quadrant) after 72 h with K562 ALPG low, 1:1 of 5.88%; a % of LG1 T cells CAR+ PrimeR- (upper left quadrant; FLAG APC vs myc PE), T cells alone, no ALPG cells (baseline) of 0.12%; a % of LG1 T cells PrimeR+ CAR- (lower right quadrant) after 72 h with K562 ALPG high, 1:1 of 0.043%; a % of LG1 T cells PrimeR+ CAR- (lower right quadrant) after 72 h with K562 ALPG low, 1:1 of 0.44%. In addition, the % of LG1 T cells PrimeR+ CAR- (lower right quadrant), T cells alone, no ALPG cells (baseline) worked out at 12%.

For the origin of these results see US20250250350A1.
